Assay results as given in the array DNA melting data of Ke et al..

Test: melting temperature; melt of duplexes
Conditions: sodium 0.0675 M; strand 1 µM

| Substance | Tm [°C] |
| --- | --- |
| CGACGTGCGGCATGTGCTG+CAGCACATCTCGCACGTCG (((((((((..((((((((+))))))))..))))))))) | 53.4 |
| CGACGTGCGGCATGTGCTG+CAGCACATGACGCACGTCG (((((((((.(((((((((+))))))))).))))))))) | 64 |
| CGACGTGCGGCATGTGCTG+CAGCACATGCCGCACGTCG (((((((((((((((((((+))))))))))))))))))) | 68.9 |
| CGACGTGCGGCATGTGCTG+CAGCACATGCGGCACGTCG ((((((((.((((((((((+)))))))))).)))))))) | 61.7 |
| CGACGTGCGGCATGTGCTG+CAGCACATGGCGCACGTCG (((((((((.(((((((((+))))))))).))))))))) | 65.9 |
| CGACGTGCGGCATGTGCTG+CAGCACATGTGGCACGTCG ((((((((..(((((((((+)))))))))..)))))))) | 56.8 |
| CGACGTGCGGCATGTGCTG+CAGCACATTATGCACGTCG ((((((((...((((((((+))))))))...)))))))) | 49 |
| CGACGTGCGGCATGTGCTG+CAGCACATTTAGCACGTCG ((((((((...((((((((+))))))))...)))))))) | 52 |
| CGACGTGCGGGATGTGCTG+CAGCACATAAAGCACGTCG ((((((((...((((((((+))))))))...)))))))) | 53.6 |
| CGACGTGCGGGATGTGCTG+CAGCACATACCGCACGTCG ((((((((((.((((((((+)))))))).)))))))))) | 63.1 |
| CGACGTGCGGGATGTGCTG+CAGCACATACGGCACGTCG ((((((((.(.((((((((+)))))))).).)))))))) | 55.6 |
| CGACGTGCGGGATGTGCTG+CAGCACATAGCGCACGTCG (((((((((..((((((((+))))))))..))))))))) | 57.4 |
| CGACGTGCGGGATGTGCTG+CAGCACATAGGGCACGTCG ((((((((...((((((((+))))))))...)))))))) | 50.1 |
| CGACGTGCGGGATGTGCTG+CAGCACATAGTGCACGTCG ((((((((...((((((((+))))))))...)))))))) | 47.9 |
| CGACGTGCGGGATGTGCTG+CAGCACATATAGCACGTCG ((((((((...((((((((+))))))))...)))))))) | 52.8 |
| CGACGTGCGGGATGTGCTG+CAGCACATCACGCACGTCG (((((((((.(((((((((+))))))))).))))))))) | 63.8 |
| CGACGTGCGGGATGTGCTG+CAGCACATCCCGCACGTCG (((((((((((((((((((+))))))))))))))))))) | 67.7 |
| CGACGTGCGGGATGTGCTG+CAGCACATCCGGCACGTCG ((((((((.((((((((((+)))))))))).)))))))) | 61.6 |
| CGACGTGCGGGATGTGCTG+CAGCACATCCTGCACGTCG ((((((((.((((((((((+)))))))))).)))))))) | 62.6 |
| CGACGTGCGGGATGTGCTG+CAGCACATCGAGCACGTCG ((((((((..(((((((((+)))))))))..)))))))) | 58.1 |
| CGACGTGCGGGATGTGCTG+CAGCACATCGCGCACGTCG (((((((((.(((((((((+))))))))).))))))))) | 63.7 |
| CGACGTGCGGGATGTGCTG+CAGCACATCTAGCACGTCG ((((((((..(((((((((+)))))))))..)))))))) | 57.8 |
| CGACGTGCGGGATGTGCTG+CAGCACATCTGGCACGTCG ((((((((..(((((((((+)))))))))..)))))))) | 57.1 |
| CGACGTGCGGGATGTGCTG+CAGCACATGACGCACGTCG (((((((((..((((((((+))))))))..))))))))) | 57.6 |

| Substance | Tm [°C] |
| --- | --- |
| CGACGTGCGGGATGTGCTG+CAGCACATGAGGCACGTCG ((((((((...((((((((+))))))))...)))))))) | 51.9 |
| CGACGTGCGGGATGTGCTG+CAGCACATGCCGCACGTCG ((((((((((.((((((((+)))))))).)))))))))) | 63.7 |
| CGACGTGCGGGATGTGCTG+CAGCACATGCGGCACGTCG ((((((((.(.((((((((+)))))))).).)))))))) | 55.4 |
| CGACGTGCGGGATGTGCTG+CAGCACATGCTGCACGTCG ((((((((.(.((((((((+)))))))).).)))))))) | 56.9 |
| CGACGTGCGGGATGTGCTG+CAGCACATGTAGCACGTCG ((((((((...((((((((+))))))))...)))))))) | 53.7 |
| CGACGTGCGGGATGTGCTG+CAGCACATGTCGCACGTCG (((((((((..((((((((+))))))))..))))))))) | 57.8 |
| CGACGTGCGGGATGTGCTG+CAGCACATTACGCACGTCG (((((((((..((((((((+))))))))..))))))))) | 58 |
| CGACGTGCGGGATGTGCTG+CAGCACATTCAGCACGTCG ((((((((.(.((((((((+)))))))).).)))))))) | 56.4 |
| CGACGTGCGGGATGTGCTG+CAGCACATTGAGCACGTCG ((((((((...((((((((+))))))))...)))))))) | 55.3 |
| CGACGTGCGGGATGTGCTG+CAGCACATTGTGCACGTCG ((((((((...((((((((+))))))))...)))))))) | 49.4 |
| CGACGTGCGGGATGTGCTG+CAGCACATTTAGCACGTCG ((((((((...((((((((+))))))))...)))))))) | 53.4 |
| CGACGTGCGGTATGTGCTG+CAGCACATAAAGCACGTCG ((((((((..(((((((((+)))))))))..)))))))) | 56.9 |
| CGACGTGCGGTATGTGCTG+CAGCACATAACGCACGTCG (((((((((.(((((((((+))))))))).))))))))) | 61.4 |
| CGACGTGCGGTATGTGCTG+CAGCACATAATGCACGTCG ((((((((..(((((((((+)))))))))..)))))))) | 54.6 |
| CGACGTGCGGTATGTGCTG+CAGCACATAGTGCACGTCG ((((((((..(((((((((+)))))))))..)))))))) | 53 |
| CGACGTGCGGTATGTGCTG+CAGCACATATTGCACGTCG ((((((((..(((((((((+)))))))))..)))))))) | 55 |
| CGACGTGCGGTATGTGCTG+CAGCACATCAAGCACGTCG ((((((((...((((((((+))))))))...)))))))) | 54 |
| CGACGTGCGGTATGTGCTG+CAGCACATCCAGCACGTCG ((((((((.(.((((((((+)))))))).).)))))))) | 55.1 |
| CGACGTGCGGTATGTGCTG+CAGCACATCGAGCACGTCG ((((((((...((((((((+))))))))...)))))))) | 54 |
| CGACGTGCGGTATGTGCTG+CAGCACATCTTGCACGTCG ((((((((...((((((((+))))))))...)))))))) | 50.7 |
| CGACGTGCGGTATGTGCTG+CAGCACATGACGCACGTCG (((((((((..((((((((+))))))))..))))))))) | 56.6 |
| CGACGTGCGGTATGTGCTG+CAGCACATGATGCACGTCG ((((((((...((((((((+))))))))...)))))))) | 52.2 |
| CGACGTGCGGTATGTGCTG+CAGCACATGCTGCACGTCG ((((((((.(.((((((((+)))))))).).)))))))) | 56.1 |
| CGACGTGCGGTATGTGCTG+CAGCACATGGGGCACGTCG ((((((((...((((((((+))))))))...)))))))) | 51.7 |

| Substance | Tm [°C] |
| --- | --- |
| CGACGTGCGGTATGTGCTG+CAGCACATTCCGCACGTCG ((((((((((.((((((((+)))))))).)))))))))) | 60 |
| CGACGTGCGGTATGTGCTG+CAGCACATTGCGCACGTCG (((((((((..((((((((+))))))))..))))))))) | 55.4 |
| CGACGTGCGGTATGTGCTG+CAGCACATTGGGCACGTCG ((((((((...((((((((+))))))))...)))))))) | 49.8 |
| CGACGTGCGGTATGTGCTG+CAGCACATTGTGCACGTCG ((((((((...((((((((+))))))))...)))))))) | 47.2 |
| CGACGTGCGGTATGTGCTG+CAGCACATTTGGCACGTCG ((((((((...((((((((+))))))))...)))))))) | 49.9 |
| CGACGTGCGTAATGTGCTG+CAGCACATACGGCACGTCG ((((((((...((((((((+))))))))...)))))))) | 52.6 |
| CGACGTGCGTAATGTGCTG+CAGCACATAGAGCACGTCG ((((((((...((((((((+))))))))...)))))))) | 54.4 |
| CGACGTGCGTAATGTGCTG+CAGCACATATAGCACGTCG ((((((((...((((((((+))))))))...)))))))) | 54.5 |
| CGACGTGCGTAATGTGCTG+CAGCACATATGGCACGTCG ((((((((...((((((((+))))))))...)))))))) | 51 |
| CGACGTGCGTAATGTGCTG+CAGCACATCAAGCACGTCG ((((((((.(.((((((((+)))))))).).)))))))) | 53.4 |
| CGACGTGCGTAATGTGCTG+CAGCACATCAGGCACGTCG ((((((((.(.((((((((+)))))))).).)))))))) | 51.5 |
| CGACGTGCGTAATGTGCTG+CAGCACATCATGCACGTCG ((((((((.(.((((((((+)))))))).).)))))))) | 52.3 |
| CGACGTGCGTAATGTGCTG+CAGCACATCCTGCACGTCG ((((((((...((((((((+))))))))...)))))))) | 49.7 |
| CGACGTGCGTAATGTGCTG+CAGCACATCGGGCACGTCG ((((((((...((((((((+))))))))...)))))))) | 49.4 |
| CGACGTGCGTAATGTGCTG+CAGCACATCTAGCACGTCG ((((((((...((((((((+))))))))...)))))))) | 54.7 |
| CGACGTGCGTAATGTGCTG+CAGCACATGCCGCACGTCG (((((((((..((((((((+))))))))..))))))))) | 54.9 |
| CGACGTGCGTAATGTGCTG+CAGCACATGGCGCACGTCG (((((((((..((((((((+))))))))..))))))))) | 57.2 |
| CGACGTGCGTAATGTGCTG+CAGCACATGTAGCACGTCG ((((((((...((((((((+))))))))...)))))))) | 58.1 |
| CGACGTGCGTAATGTGCTG+CAGCACATTAAGCACGTCG ((((((((.((((((((((+)))))))))).)))))))) | 56.9 |
| CGACGTGCGTAATGTGCTG+CAGCACATTACGCACGTCG (((((((((((((((((((+))))))))))))))))))) | 63.9 |
| CGACGTGCGTAATGTGCTG+CAGCACATTCCGCACGTCG (((((((((.(((((((((+))))))))).))))))))) | 57.7 |
| CGACGTGCGTAATGTGCTG+CAGCACATTCGGCACGTCG ((((((((..(((((((((+)))))))))..)))))))) | 53.1 |
| CGACGTGCGTCATGTGCTG+CAGCACATAACGCACGTCG ((((((((((.((((((((+)))))))).)))))))))) | 58 |
| CGACGTGCGTCATGTGCTG+CAGCACATACAGCACGTCG ((((((((...((((((((+))))))))...)))))))) | 53 |
